From PMC9965216

Biological target: wild-type GroEL chaperonin (GroEL14) (E. coli) (UniProt P0A6F5)
Test: SDS-PAGE band intensity + absorption spectrophotometry; purified GroEL14-EGFP population assembled in vivo by coexpression; Coomassie-stained bands of WT GroEL (~60 kDa) and GroEL-EGFP (~90 kDa); absorption at 280 and 489 nm
Conditions: scale: WT subunits per fusion GroEL-EGFP subunit

Chain of wild-type GroEL chaperonin (GroEL14) (E. coli) (P0A6F5 whole entry): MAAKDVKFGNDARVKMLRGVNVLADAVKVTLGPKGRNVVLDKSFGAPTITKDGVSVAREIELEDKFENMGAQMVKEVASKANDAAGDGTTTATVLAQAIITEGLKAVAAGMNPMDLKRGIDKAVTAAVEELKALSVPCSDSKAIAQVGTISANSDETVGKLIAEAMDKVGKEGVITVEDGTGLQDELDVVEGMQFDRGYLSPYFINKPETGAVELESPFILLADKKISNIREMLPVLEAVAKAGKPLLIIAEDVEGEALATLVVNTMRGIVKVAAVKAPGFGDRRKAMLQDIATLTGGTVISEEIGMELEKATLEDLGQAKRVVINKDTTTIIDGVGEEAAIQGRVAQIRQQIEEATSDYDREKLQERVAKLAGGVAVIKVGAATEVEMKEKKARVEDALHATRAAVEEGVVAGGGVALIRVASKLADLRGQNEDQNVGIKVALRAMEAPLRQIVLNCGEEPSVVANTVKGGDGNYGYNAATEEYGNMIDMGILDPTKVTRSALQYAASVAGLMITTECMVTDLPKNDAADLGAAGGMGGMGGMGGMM

Question: With “GroEL-EGFP fusion subunit (from UniProt P0A6F5 1-548; P42212 2-238)” as the substance, how does the stoichiometry N read?
Answer: 12
